Measurements reported in doi:10.1101/2023.02.19.529116 (bioRxiv, 2023).
Blank lines part the entries; values can stand above or below the binder they belong to.

B2: Smaug 70-281 (domain or fragment, Drosophila, UniProt Q23972 70-281, looked up)
chain: SNALFCEQVTTVTNLFEKWNDCERTVVMYALLKRLRYPSLKFLQYSIDSNLTQNLGTSQTNLSSVVIDINANNPVYLQNLLNAYKTFQPCDLLDAMSSSSSDKDSMPCYGSDFQITTSAQCDERKLYARKEDILHEVLNMLPLLKPGNEEAKLIYLTLIPVAVKDTMQQIVPTELVQQIFSYLLIHPAITSEDRRSLNIWLRHLEDHIQAAA
B3: Smoothened 970-1003 synthetic peptide (peptide, UniProt P91682 970-1003, looked up)
peptide: VPSYGEDELQQAMRLLNAASRQRTEAANEDFGGT
B4: Smaug 73-278Δ156-196 (Smaug part of the single-chain construct) (domain or fragment, Drosophila, UniProt Q23972 73-278, looked up)
chain: LFCEQVTTVTNLFEKWNDCERTVVMYALLKRLRYPSLKFLQYSIDSNLTQNLGTSQTNLSSVVIDINANNPVYLQNLLNAYKTARKEDILHEVLNMLPLLKPGNEEAKLIYLTLIPVAVKDTMQQIVPTELVQQIFSYLLIHPAITSEDRRSLNIWLRHLEDHIQ

Columns and labels:
[1] = biological target: B4; test: crystal structure
crystal structure [2] = biological target: the molecule itself; test: crystal structure
[3] = biological target: B3; test: ITC
Smaug 70-281 = biological target: B2; test: ITC
crystal structure [4] = biological target: the molecule itself; test: crystal structure; remark: listed apart in the source

binding result [1]: binds
Binder: VPSYGEDELQQAMRLLNAASRQRTEAANEDFGGT (peptide, UniProt P91682 970-1003, looked up) [Smo 970-1003 (Smoothened part of the single-chain construct)]

B1: His-Hs-SAMD4A 2-156 (domain or fragment, human, UniProt Q9UPU9 2-156, looked up)
chain: MFRDQVGVLAGWFKGWNECEQTVALLSLLKRVSQTQARFLQLCLEHSLADCAELHVLEREANSPGIINQWQQESKDKVISLLLTHLPLLKPGNLDAKVEYMKLLPKILAHSIEHNQHIEESRQLLSYALIHPATSLEDRSALAMWLNHLEDRTST
stoichiometry N (crystal structure [2]): 2

Binder: B2
stoichiometry N [3]: 1

Binder: B3
Kd (Smaug 70-281): 800 nM

Binder: B4
binding result (crystal structure [4]): binds
